Measured values taken from patent US9574173 (ACCELERATED BIOSCIENCES, dated 2017).
Blank lines part the entries; values can stand above or below the binder they belong to.

Tests used:
[1] = target: T1, E1A binding protein p300 (EP300) (human, UniProt Q09472 2-2414); test: immunoprecipitation and Western blot, RA-treated hTS cells (FIG. 22c)
T1 construct: Endogenous protein of RA-treated hTS cells; also called ER300

[2] = target: mechanistic target of rapamycin (mTOR) (human, UniProt P42345 1-2549); test: immunoprecipitation and Western blot, RA-treated hTS cells (FIG. 28d)

T1 sequence (Q09472 2-2414 limits assumed): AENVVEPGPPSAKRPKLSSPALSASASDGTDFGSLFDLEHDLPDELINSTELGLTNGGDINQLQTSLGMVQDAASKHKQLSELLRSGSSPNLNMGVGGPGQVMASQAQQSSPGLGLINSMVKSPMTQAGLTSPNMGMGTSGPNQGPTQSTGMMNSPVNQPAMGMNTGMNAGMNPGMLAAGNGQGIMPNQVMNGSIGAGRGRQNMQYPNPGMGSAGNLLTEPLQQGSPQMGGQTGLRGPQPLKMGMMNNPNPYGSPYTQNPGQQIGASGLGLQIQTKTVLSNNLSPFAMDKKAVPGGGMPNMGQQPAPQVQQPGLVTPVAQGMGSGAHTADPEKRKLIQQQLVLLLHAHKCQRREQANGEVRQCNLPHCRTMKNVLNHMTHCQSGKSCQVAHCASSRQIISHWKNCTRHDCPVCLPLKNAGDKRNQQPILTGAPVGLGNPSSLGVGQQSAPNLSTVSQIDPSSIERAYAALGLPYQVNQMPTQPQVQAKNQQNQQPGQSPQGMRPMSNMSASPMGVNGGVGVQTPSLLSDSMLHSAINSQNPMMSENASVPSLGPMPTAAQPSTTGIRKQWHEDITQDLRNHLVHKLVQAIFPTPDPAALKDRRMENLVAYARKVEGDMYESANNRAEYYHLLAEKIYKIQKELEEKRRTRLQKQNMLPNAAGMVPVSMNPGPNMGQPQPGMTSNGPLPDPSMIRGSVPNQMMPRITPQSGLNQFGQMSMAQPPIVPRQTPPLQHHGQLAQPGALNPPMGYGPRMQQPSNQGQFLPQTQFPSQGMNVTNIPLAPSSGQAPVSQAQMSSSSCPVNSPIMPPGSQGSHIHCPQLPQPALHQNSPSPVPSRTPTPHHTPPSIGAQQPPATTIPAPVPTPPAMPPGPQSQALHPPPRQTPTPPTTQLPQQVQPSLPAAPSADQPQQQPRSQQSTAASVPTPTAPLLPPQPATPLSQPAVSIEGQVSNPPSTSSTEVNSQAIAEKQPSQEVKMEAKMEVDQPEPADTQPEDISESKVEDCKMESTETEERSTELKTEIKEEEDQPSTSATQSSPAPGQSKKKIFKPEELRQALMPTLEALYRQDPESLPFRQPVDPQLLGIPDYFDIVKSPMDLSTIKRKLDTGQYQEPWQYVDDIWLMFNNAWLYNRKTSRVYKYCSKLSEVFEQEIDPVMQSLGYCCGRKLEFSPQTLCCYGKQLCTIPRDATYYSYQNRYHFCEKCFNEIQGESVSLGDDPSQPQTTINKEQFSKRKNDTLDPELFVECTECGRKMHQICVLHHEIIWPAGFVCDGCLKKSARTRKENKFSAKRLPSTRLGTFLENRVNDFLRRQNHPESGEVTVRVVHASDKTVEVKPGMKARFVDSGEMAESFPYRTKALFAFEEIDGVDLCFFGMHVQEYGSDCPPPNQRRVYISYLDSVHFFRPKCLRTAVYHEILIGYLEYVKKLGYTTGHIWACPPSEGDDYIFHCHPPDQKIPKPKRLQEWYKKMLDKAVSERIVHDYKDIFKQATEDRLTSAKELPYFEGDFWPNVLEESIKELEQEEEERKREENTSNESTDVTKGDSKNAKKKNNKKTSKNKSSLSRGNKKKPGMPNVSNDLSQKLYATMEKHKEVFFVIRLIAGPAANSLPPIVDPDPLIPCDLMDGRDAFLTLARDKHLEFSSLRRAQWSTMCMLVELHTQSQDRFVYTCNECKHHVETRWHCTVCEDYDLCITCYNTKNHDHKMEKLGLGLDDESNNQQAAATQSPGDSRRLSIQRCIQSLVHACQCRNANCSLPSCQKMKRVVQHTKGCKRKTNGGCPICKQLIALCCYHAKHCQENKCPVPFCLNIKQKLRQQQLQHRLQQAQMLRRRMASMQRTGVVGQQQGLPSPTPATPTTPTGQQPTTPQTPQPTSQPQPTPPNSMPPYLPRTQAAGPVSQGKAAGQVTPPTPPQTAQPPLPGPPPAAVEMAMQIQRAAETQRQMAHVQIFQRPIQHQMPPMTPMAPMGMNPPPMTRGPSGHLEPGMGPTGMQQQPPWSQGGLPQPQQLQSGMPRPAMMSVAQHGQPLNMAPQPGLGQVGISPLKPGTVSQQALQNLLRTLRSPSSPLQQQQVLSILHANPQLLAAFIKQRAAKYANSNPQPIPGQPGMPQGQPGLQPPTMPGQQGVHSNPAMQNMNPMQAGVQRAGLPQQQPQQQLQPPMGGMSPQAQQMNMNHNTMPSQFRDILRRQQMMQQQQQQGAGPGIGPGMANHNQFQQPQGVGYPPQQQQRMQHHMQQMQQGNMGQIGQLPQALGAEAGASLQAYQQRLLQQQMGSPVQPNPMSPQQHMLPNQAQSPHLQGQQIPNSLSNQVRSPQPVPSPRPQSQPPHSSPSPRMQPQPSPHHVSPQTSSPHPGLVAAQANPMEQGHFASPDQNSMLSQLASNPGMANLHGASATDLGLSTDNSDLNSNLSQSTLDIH

binding result [1]: binds
B1: myocyte enhancer factor 2A (MEF2A) (other, human, UniProt Q02078 1-507, looked up)
chain: MGRKKIQITRIMDERNRQVTFTKRKFGLMKKAYELSVLCDCEIALIIFNSSNKLFQYASTDMDKVLLKYTEYNEPHESRTNSDIVEALNKKEHRGCDSPDPDTSYVLTPHTEEKYKKINEEFDNMMRNHKIAPGLPPQNFSMSVTVPVTSPNALSYTNPGSSLVSPSLAASSTLTDSSMLSPPQTTLHRNVSPGAPQRPPSTGNAGGMLSTTDLTVPNGAGSSPVGNGFVNSRASPNLIGATGANSLGKVMPTKSPPPPGGGNLGMNSRKPDLRVVIPPSSKGMMPPLSEEEELELNTQRISSSQATQPLATPVVSVTTPSLPPQGLVYSAMPTAYNTDYSLTSADLSALQGFNSPGMLSLGQVSAWQQHHLGQAALSSLVAGGQLSQGSNLSINTNQNISIKSEPISPPRDRMTPSGFQQQQQQQQQQQPPPPPQPQPQPPQPQPRQEMGRSPVDSLSSSSSSYDGSDREDPRGDFHSPIVLGRPPNTEDRESPSVKRMRMDAWVT
notes: Endogenous protein of RA-treated hTS cells

binding result [2]: binds
B2: rac-gamma serine/threonine-protein kinase (AKt3) (enzyme)
chain: SDVTIVKEGWVQKRGEYIKNWRPRYFLLKTDGSFIGYKEKPQDVDLPYPLNNFSVAKCQLMKTERPKPNTFIIRCLQWTTVIERTFHVDTPEEREEWTEAIQAVADRLQRQEEERMNCSPTSQIDNIGEEEMDASTTHHKRKTMNDFDYLKLLGKGTFGKVILVREKASGKYYAMKILKKEVIIAKDEVAHTLTESRVLKNTRHPFLTSLKYSFQTKDRLCFVMEYVNGGELFFHLSRERVFSEDRTRFYGAEIVSALDYLHSGKIVYRDLKLENLMLDKDGHIKITDFGLCKEGITDAATMKTFCGTPEYLAPEVLEDNDYGRAVDWWGLGVVMYEMMCGRLPFYNQDHEKLFELILMEDIKFPRTLSSDAKSLLSGLLIKDPNKRLGGGPDDAKEIMRHSFFSGVNWQDVYDKKLVPPFKPQVTSETDTRYFDEEFTAQTITITPPEKYDEDGMDCMDNERRPHFPQFSYSASGRE
notes: as for B1
